From the supplement of paper PMC11316812
± gives the standard deviation of the averaged measurements.

Tests used:
[1] = system: hTERT-HMEC; assay: percentage of EdU-negative (G0-arrested) nuclei per well, 72 h; higher = more G0 arrest; settings: reference: sequence is the full UniProt precursor, the tested protein was the secreted form or ectodomain
[2] = system: MCF7; assay: as above; settings: reference: sequence is the full UniProt precursor, the tested protein was the secreted form or ectodomain
[3] = protein concentration 0.00828571 µM
[4] = protein concentration 0.0828571 µM
[5] = protein concentration 0.00975 µM
[6] = protein concentration 0.0975 µM
[7] = protein concentration 0.00575 µM
[8] = protein concentration 0.0575 µM
[9] = protein concentration 0.0225 µM
[10] = protein concentration 0.0155 µM
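Also: secreted proteins added to cultured cells, EdU pulse at the end, nuclei found by Hoechst imaging, EdU status from nuclear versus surrounding ring intensity ratio, PBS as neutral control.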

Sequence: MWAQLLLGMLALSPAIAEELPNYLVTLPARLNFPSVQKVCLDLSPGYSDVKFTVTLETKDKTQKLLEYSGLKKRHLHCISFLVPPPAGGTEEVATIRVSGVGNNISFEEKKKVLIQRQGNGTFVQTDKPLYTPGQQVYFRIVTMDSNFVPVNDKYSMVELQDPNSNRIAQWLEVVPEQGIVDLSFQLAPEAMLGTYTVAVAEGKTFGTFSVEEYVLPKFKVEVVEPKELSTVQESFLVKICCRYTYGKPMLGAVQVSVCQKANTYWYREVEREQLPDKCRNLSGQTDKTGCFSAPVDMATFDLIGYAYSHQINIVATVVEEGTGVEANATQNIYISPQMGSMTFEDTSNFYHPNFPFSGKIRVRGHDDSFLKNHLVFLVIYGTNGTFNQTLVTDNNGLAPFTLETSGWNGTDVSLEGKFQMEDLVYNPEQVPRYYQNAYLHLRPFYSTTRSFLGIHRLNGPLKCGQPQEVLVDYYIDPADASPDQEISFSYYLIGKGSLVMEGQKHLNSKKKGLKASFSLSLTFTSRLAPDPSLVIYAIFPSGGVVADKIQFSVEMCFDNQVSLGFSPSQQLPGAEVELQLQAAPGSLCALRAVDESVLLLRPDRELSNRSVYGMFPFWYGHYPYQVAEYDQCPVSGPWDFPQPLIDPMPQGHSSQRSIIWRPSFSEGTDLFSFFRDVGLKILSNAKIKKPVDCSHRSPEYSTAMGAGGGHPEAFESSTPLHQAEDSQVRQYFPETWLWDLFPIGNSGKEAVHVTVPDAITEWKAMSFCTSQSRGFGLSPTVGLTAFKPFFVDLTLPYSVVRGESFRLTATIFNYLKDCIRVQTDLAKSHEYQLESWADSQTSSCLCADDAKTHHWNITAVKLGHINFTISTKILDSNEPCGGQKGFVPQKGRSDTLIKPVLVKPEGVLVEKTHSSLLCPKGKVASESVSLELPVDIVPDSTKAYVTVLGDIMGTALQNLDGLVQMPSGCGEQNMVLFAPIIYVLQYLEKAGLLTEEIRSRAVGFLEIGYQKELMYKHSNGSYSAFGERDGNGNTWLTAFVTKCFGQAQKFIFIDPKNIQDALKWMAGNQLPSGCYANVGNLLHTAMKGGVDDEVSLTAYVTAALLEMGKDVDDPMVSQGLRCLKNSATSTTNLYTQALLAYIFSLAGEMDIRNILLKQLDQQAIISGESIYWSQKPTPSSNASPWSEPAAVDVELTAYALLAQLTKPSLTQKEIAKATSIVAWLAKQHNAYGGFSSTQDTVVALQALAKYATTAYMPSEEINLVVKSTENFQRTFNIQSVNRLVFQQDTLPNVPGMYTLEASGQGCVYVQTVLRYNILPPTNMKTFSLSVEIGKARCEQPTSPRSLTLTIHTSYVGSRSSSNMAIVEVKMLSGFSPMEGTNQLLLQQPLVKKVEFGTDTLNIYLDELIKNTQTYTFTISQSVLVTNLKPATIKVYDYYLPDEQATIQYSDPCE [A8K2U0]
- percentage of EdU-negative [1, 3]: 5.09 ± 0.24%
- percentage of EdU-negative [1, 4]: 5.43 ± 0.39%
- percentage of EdU-negative [2, 3]: 23.3 ± 1.1%
- percentage of EdU-negative [2, 4]: 29.5 ± 1.8%

Sequence: MNLWLLACLVAGFLGAWAPAVHTQGVFEDCCLAYHYPIGWAVLRRAWTYRIQEVSGSCNLPAAIFYLPKRHRKVCGNPKSREVQRAMKLLDARNKVFAKLHHNTQTFQAGPHAVKKLSSGNSKLSSSKFSNPISSSKRNVSLLISANSGL
- percentage of EdU-negative [1, 5]: 4.38 ± 0.21%
- percentage of EdU-negative [1, 6]: 5.5688 ± 0.0047%
- percentage of EdU-negative [2, 5]: 24.3 ± 1.7%
- percentage of EdU-negative [2, 6]: 25.01 ± 0.22%

Sequence: MKWLLLLGLVALSECIMYKVPLIRKKSLRRTLSERGLLKDFLKKHNLNPARKYFPQWEAPTLVDEQPLENYLDMEYFGTIGIGTPAQDFTVVFDTGSSNLWVPSVYCSSLACTNHNRFNPEDSSTYQSTSETVSITYGTGSMTGILGYDTVQVGGISDTNQIFGLSETEPGSFLYYAPFDGILGLAYPSISSSGATPVFDNIWNQGLVSQDLFSVYLSADDQSGSVVIFGGIDSSYYTGSLNWVPVTVEGYWQITVDSITMNGEAIACAEGCQAIVDTGTSLLTGPTSPIANIQSDIGASENSDGDMVVSCSAISSLPDIVFTINGVQYPVPPSAYILQSEGSCISGFQGMNLPTESGELWILGDVFIRQYFTVFDRANNQVGLAPVA [P0DJD7]
- percentage of EdU-negative [1, 7]: 4.41 ± 0.41%
- percentage of EdU-negative [1, 8]: 5.85 ± 0.73%
- percentage of EdU-negative [2, 7]: 25.5 ± 2.2%
- percentage of EdU-negative [2, 8]: 24.6 ± 1.6%

Sequence: MKWMVVVLVCLQLLEAAVVKVPLKKFKSIRETMKEKGLLGEFLRTHKYDPAWKYRFGDLSVTYEPMAYMDAAYFGEISIGTPPQNFLVLFDTGSSNLWVPSVYCQSQACTSHSRFNPSESSTYSTNGQTFSLQYGSGSLTGFFGYDTLTVQSIQVPNQEFGLSENEPGTNFVYAQFDGIMGLAYPALSVDEATTAMQGMVQEGALTSPVFSVYLSNQQGSSGGAVVFGGVDSSLYTGQIYWAPVTQELYWQIGIEEFLIGGQASGWCSEGCQAIVDTGTSLLTVPQQYMSALLQATGAQEDEYGQFLVNCNSIQNLPSLTFIINGVEFPLPPSSYILSNNGYCTVGVEPTYLSSQNGQPLWILGDVFLRSYYSVYDLGNNRVGFATAA
- percentage of EdU-negative [1, 9]: 4.89 ± 0.11%
- percentage of EdU-negative ([1]; protein concentration 0.225 µM): 6.1 ± 0.73%
- percentage of EdU-negative [2, 9]: 24.38 ± 0.12%
- percentage of EdU-negative ([2]; protein concentration 0.225 µM): 23.4 ± 0.35%

Sequence: MLRGTLLCAVLGLLRAQPFPCPPACKCVFRDAAQCSGGDVARISALGLPTNLTHILLFGMGRGVLQSQSFSGMTVLQRLMISDSHISAVAPGTFSDLIKLKTLRLSRNKITHLPGALLDKMVLLEQLFLDHNALRGIDQNMFQKLVNLQELALNQNQLDFLPASLFTNLENLKLLDLSGNNLTHLPKGLLGAQAKLERLLLHSNRLVSLDSGLLNSLGALTELQFHRNHIRSIAPGAFDRLPNLSSLTLSRNHLAFLPSALFLHSHNLTLLTLFENPLAELPGVLFGEMGGLQELWLNRTQLRTLPAAAFRNLSRLRYLGVTLSPRLSALPQGAFQGLGELQVLALHSNGLTALPDGLLRGLGKLRQVSLRRNRLRALPRALFRNLSSLESVQLDHNQLETLPGDVFGALPRLTEVLLGHNSWRCDCGLGPFLGWLRQHLGLVGGEEPPRCAGPGAHAGLPLWALPGGDAECPGPRGPPPRPAADSSSEAPVHPALAPNSSEPWVWAQPVTTGKGQDHSPFWGFYFLLLAVQAMITVIIVFAMIKIGQLFRKLIRERALG
- percentage of EdU-negative [1, 10]: 4.92 ± 0.41%
- percentage of EdU-negative ([1]; protein concentration 0.155 µM): 9.145 ± 0.063%
- percentage of EdU-negative [2, 10]: 24.8 ± 4.1%
- percentage of EdU-negative ([2]; protein concentration 0.155 µM): 32.8 ± 1.1%
